Test results published in IntAct's records for PubMed 27332895.

B1: Aurora kinase C (Homo sapiens), Q9UQB9 (parent)
chain: MSSPRAVVQLGKAQPAGEELATANQTAQQPSSPAMRRLTVDDFEIGRPLGKGKFGNVYLARLKESHFIVALKVLFKSQIEKEGLEHQLRREIEIQAHLQHPNILRLYNYFHDARRVYLILEYAPRGELYKELQKSEKLDEQRTATIIEELADALTYCHDKKVIHRDIKPENLLLGFRGEVKIADFGWSVHTPSLRRKTMCGTLDYLPPEMIEGRTYDEKVDLWCIGVLCYELLVGYPPFESASHSETYRRILKVDVRFPLSMPLGARDLISRLLRYQPLERLPLAQILKHPWVQAHSRRVLPPCAQMAS

Variants of: B1
Details: with ince_human INCENP

| effect of a mutation on the interaction | Variant |
| --- | --- |
| disrupting interaction | T202A |
| disrupting interaction | T198A |

Variants of: B1
Details: with ince_human INCENP
Remark: another data set of the same source

| effect of a mutation on the interaction | Variant |
| --- | --- |
| disrupting interaction | K76R |
